# PMC3958255 (Sensors (Basel, Switzerland), 2014)
# Legend:
# [1] = molecular target: T1, Jun-Lc (bJun fused upstream of mLumin (151-233)) (UniProt P05412 257-318); assay: split reporter (BiFC, NanoBiT); mLumin-based BiFC from the bicistronic vector pBudCE4.1 (BEVL-BiFC) in living COS-7 cells; 100 ng vector (also 300 ng) with 30 ng pmCerulean-C1 as internal control; imaged 16 h after cotransfection; BiFC efficiency = fluorescence intensity ratio of mLumin to mCerulean; conditions: partners not purified
# T1 construct: primers are in the Supporting Information; also called bJun-Lc; source: COS-7, transfected (pBudCE4.1 bicistronic vector), in living cells; not shown: mLumin (151-233) (Lc), C-terminal, kept
# T1 sequence (P05412 257-318): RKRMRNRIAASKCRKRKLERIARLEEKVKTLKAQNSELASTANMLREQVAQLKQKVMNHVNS
# [2] = molecular target: T2, Lc-Jun (bJun fused downstream of mLumin (151-233)) (UniProt P05412 257-318); assay: as above; conditions: partners not purified
# T2 construct: primers are in the Supporting Information; also called Lc-bJun; source: COS-7, transfected (pBudCE4.1 bicistronic vector), in living cells; not shown: mLumin (151-233) (Lc), N-terminal, kept
# T2 sequence (P05412 257-318): as above
binder,measurement,setting,value
"Ln-Fos (bFos fused downstream of mLumin (1-151)) (domain or fragment, UniProt P01100 118-210, looked up, primers are in the Supporting Information; also called Ln-bFos; source: COS-7, transfected (pBudCE4.1 bicistronic vector), in living cells; not shown: mLumin (1-151) (Ln), N-terminal, kept) GRAQSIGRRGKVEQLSPEEEEKRRIRRERNKMAAAKCRNRRRELTDTLQAETDQLEDEKSALQTEIANLLKEKEKLEFILAAHRPACKIPDDL",fold contrast in BiFC efficiency over ΔFos/Jun,[1],~25 fold
same,fold contrast in BiFC efficiency over ΔFos/Jun,[2],~25 fold
